In patent US20050054833A1 (published 2005):

Legend:
[1] = molecular target: p5E8G1N-; test: apparent Kd
[2] = molecular target: p5E8G1; test: apparent Kd
[3] = molecular target: T1, human CD23 (human, UniProt P06734 1-321); test: apparent Kd
T1 chain: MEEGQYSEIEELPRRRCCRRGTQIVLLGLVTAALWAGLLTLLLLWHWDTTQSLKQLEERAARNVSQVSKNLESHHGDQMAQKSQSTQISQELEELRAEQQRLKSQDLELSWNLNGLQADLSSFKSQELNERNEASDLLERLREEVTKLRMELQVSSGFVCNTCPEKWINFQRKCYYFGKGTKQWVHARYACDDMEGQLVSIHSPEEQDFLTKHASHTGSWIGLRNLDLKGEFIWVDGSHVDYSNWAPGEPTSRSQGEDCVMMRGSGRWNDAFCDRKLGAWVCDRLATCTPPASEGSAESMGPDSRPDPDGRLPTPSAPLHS

[4] = molecular target: T1, human CD23; test: apparent Kd; replicate 2
[5] = molecular target: T1, human CD23; test: apparent Kd; replicate 3
[6] = molecular target: T1, human CD23; test: apparent Kd; replicate 4
[7] = molecular target: T1, human CD23; test: apparent Kd; replicate 1

B1: CD23 (receptor)
chain: MEEGQYSEIEELPRRRCCRRGTQIVLLGLVTAALWAGLLTLLLLWHWDTTQSLKQLEERAARNVSQVSKNLESHHGDQMAQKSQSTQISQELEELRAEQQRLKSQDLELSWNLNGLQADLSSFKSQELNERNEASDLLERLREEVTKLRMELQVSSGFVCNTCPEKWINFQRKCYYFGKGTKQWVHARYACDDMEGQLVSIHSPEEQDFLTKHASHTGSWIGLRNLDLKGEFIWVDGSHVDYSNWAPGEPTSRSQGEDCVMMRGSGRWNDAFCDRKLGAWVCDRLATCTPPASEGSAESMGPDSRPDPDGRLPTPSAPLHS
[1]
  Kd: 0.7 nM
[2]
  Kd: 0.7 nM

B2: PRIMATIZED antibody p5E8G4PN- (antibody, V domains shown)
VH: EVQLVESGGGLAKPGGSLRLSCAASGFRFTFNNYYMDWVRQAPGQGLEWVSRISSSGDPTWYADSVKGRFTISRENAKNTLFLQMNSLRAEDTAVYYCASLTTGSDSWGQGVLVTVSS
VL: DIQMTQSPSSLSASVGDRVTITCRASQDIRYYLNWYQQKPGKAPKLLIYVASSLQSGVPSRFSGSGSGTEFTLTVSSLQPEDFATYYCLQVYSTPRTFGQGTKVEIK
[3]
  Kd: 0.3 nM

B3: primate anti-human CD23 monoclonal antibody 5E8 (antibody, V domains shown)
VH: EVQLVESGGGLAKPGGSLRLSCAASGFRFTFNNYYMDWVRQAPGQGLEWVSRISSSGDPTWYADSVKGRFTISRENANNTLFLQMNSLRAEDTAVYYCASLTTGSDSWGQGVLVTVSS
VL: DIQMTQSPSSLSASVGDRVTITCRASQDIRYYLNWYQQKPGKAPKLLIYVASSLQSGVPSRFSGSGSGTEFTLTVSSLQPEDFATYYCLQVYSTPRTFGQGTKVEIK
modifications: N-linked oligosaccharide at the asparagine of the heavy chain variable region glycosylation site (Kabat 75)
[4]
  Kd: 1.5 nM
[5]
  Kd: 1.8 nM
[6]
  Kd: 4.4 nM
[7]
  Kd: 0.5 nM

B4: PRIMATIZED antibody p5E8G4P (antibody, V domains shown)
VH: EVQLVESGGGLAKPGGSLRLSCAASGFRFTFNNYYMDWVRQAPGQGLEWVSRISSSGDPTWYADSVKGRFTISRENANNTLFLQMNSLRAEDTAVYYCASLTTGSDSWGQGVLVTVSS
VL: DIQMTQSPSSLSASVGDRVTITCRASQDIRYYLNWYQQKPGKAPKLLIYVASSLQSGVPSRFSGSGSGTEFTLTVSSLQPEDFATYYCLQVYSTPRTFGQGTKVEIK
modifications: N-linked oligosaccharide at the asparagine of the heavy chain variable region glycosylation site (Kabat 75)
[4]
  Kd: 1 nM
[7]
  Kd: 0.3 nM
